T1: GpsB-L-FLAG^3 (Streptococcus pneumoniae (strain D39 …, UniProt Q8DR57 1-109))
T1 sequence: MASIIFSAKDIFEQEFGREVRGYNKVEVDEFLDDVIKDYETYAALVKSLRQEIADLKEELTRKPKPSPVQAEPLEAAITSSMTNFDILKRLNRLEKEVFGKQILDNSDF

T2: StkP-FLAG^2 (Streptococcus pneumoniae (strain D39 …, UniProt Q8DNS0 1-659))
T2 sequence: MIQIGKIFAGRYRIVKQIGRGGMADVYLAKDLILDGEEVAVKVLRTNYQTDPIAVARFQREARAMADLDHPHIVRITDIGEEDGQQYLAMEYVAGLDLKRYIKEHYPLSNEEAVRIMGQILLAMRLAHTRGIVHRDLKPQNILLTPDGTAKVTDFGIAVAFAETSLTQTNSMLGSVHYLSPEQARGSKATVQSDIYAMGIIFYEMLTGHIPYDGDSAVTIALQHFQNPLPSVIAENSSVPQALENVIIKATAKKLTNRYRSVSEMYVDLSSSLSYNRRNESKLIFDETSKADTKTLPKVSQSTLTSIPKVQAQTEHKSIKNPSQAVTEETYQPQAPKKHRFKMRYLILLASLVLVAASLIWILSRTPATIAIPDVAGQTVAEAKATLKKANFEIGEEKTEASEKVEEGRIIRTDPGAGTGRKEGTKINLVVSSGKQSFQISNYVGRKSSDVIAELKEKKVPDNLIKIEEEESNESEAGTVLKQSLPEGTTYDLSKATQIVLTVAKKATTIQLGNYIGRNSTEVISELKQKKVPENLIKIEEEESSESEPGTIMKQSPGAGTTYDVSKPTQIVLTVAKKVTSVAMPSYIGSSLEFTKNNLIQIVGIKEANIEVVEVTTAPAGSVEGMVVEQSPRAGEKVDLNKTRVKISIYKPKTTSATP

T3: EzrA-L-FLAG^3 (Streptococcus pneumoniae (strain D39 …, UniProt Q8DQE5 1-575))
T3 sequence: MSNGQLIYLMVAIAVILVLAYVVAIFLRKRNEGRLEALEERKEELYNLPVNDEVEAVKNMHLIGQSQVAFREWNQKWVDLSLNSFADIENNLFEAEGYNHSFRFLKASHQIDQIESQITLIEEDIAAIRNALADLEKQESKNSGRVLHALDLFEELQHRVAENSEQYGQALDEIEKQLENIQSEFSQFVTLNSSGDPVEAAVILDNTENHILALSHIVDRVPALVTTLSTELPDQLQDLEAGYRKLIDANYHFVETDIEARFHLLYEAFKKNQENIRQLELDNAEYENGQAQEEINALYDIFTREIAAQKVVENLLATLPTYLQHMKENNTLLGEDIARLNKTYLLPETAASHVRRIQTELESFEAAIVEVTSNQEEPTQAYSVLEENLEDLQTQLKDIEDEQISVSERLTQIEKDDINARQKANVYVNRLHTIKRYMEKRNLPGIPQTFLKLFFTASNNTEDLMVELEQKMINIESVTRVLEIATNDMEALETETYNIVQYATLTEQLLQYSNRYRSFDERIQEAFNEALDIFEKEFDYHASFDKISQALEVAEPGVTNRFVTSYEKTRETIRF


Key:
Assay in all cases: co-IP
GpsB-L-FLAG^3 = target: T1, GpsB-L-FLAG^3
StkP-FLAG^2 = target: T2, StkP-FLAG^2
EzrA-L-FLAG^3 = target: T3, EzrA-L-FLAG^3

Binder	ratio of prey protein band, GpsB-L-FLAG^3 bait to GpsB^+ control (GpsB-L-FLAG^3) [ratio]	ratio of prey protein band, StkP-FLAG^2 bait to StkP^+ control (StkP-FLAG^2) [ratio]	ratio of prey protein band, EzrA-L-FLAG^3 bait to EzrA^+ control (EzrA-L-FLAG^3) [ratio]
aPBP2a-HA^4 (enzyme) MKLDKLFEKFLSLFKKETSELEDSDSTILRRSRSDRKKLAQVGPIRKFWRRYHLTKIILILGLSAGLLVGIYLFAVAKSTNVNDLQNALKTRTLIFDREEKEAGALSGQKGTYVELTDISKNLQNAVIATEDRSFYKNDGINYGRFFLAIVTAGRSGGGSTITQQLAKNAYLSQDQTVERKAKEFFLALELSKKYSKEQILTMYLNNAYFGNGVWGVEDASKKYFGVSASEVSLDQAATLAGMLKGPELYNPLNSVEDSTNRRDTVLQNMVAAGYIDKNQETEAAEVDMTSQLHDKYEGKISDYRYPSYFDAVVNEAVSKYNLTEEEIVNNGYRIYTELDQNYQANMQIVYENTSLFPRAEDGTFAQSGSVALEPKTGGVRGVVGQVADNDKTGFRNFNYATQSKRSPGSTIKPLVVYTPAVEAGWALNKQLDNHTMQYDSYKVDNYAGIKTSREVPMYQSLAESLNLPAVATVNDLGVDKAFEAGEKFGLNMEKVDRVLGVALGSGVETNPLQMAQAYAAFANEGLMPEAHFISRIENASGQVIASHKNSQKRVIDKSVADKMTSMMLGTFTNGTGISSSPADYVMAGKTGTTEAVFNPEYTSDQWVIGYTPDVVISHWLGFPTTDENHYLAGSTSNGAAHVFRNIANTILPYTPGSTFTVENAYKQNGIAPANTKRQVQTNDNSQTDDNLSDIRGRAQSLVDEASRAISDAKIKEKAQTIWDSIVNLFR	4	–	–
bPBP2b-HA (enzyme) MRKFNSHSIPIRLNLLFSIVILLFMTIIGRLLYMQVLNKDFYEKKLASASQTKITSSSARGEIYDASGKPLVENTLKQVVSFTRSNKMTATDLKETAKKLLTYVSISSPNLTERQLADYYLADPEIYKKIVEALPSEKRLDSDGNRLSESELYNNAVDSVQTSQLNYTEDEKKEIYLFSQLNAVGNFATGTIATDPLNDSQVAVIASISKEMPGISISTSWDRKVLETSLSSIVGSVSSEKAGLPAEEAEAYLKKGYSLNDRVGTSYLEKQYEETLQGKRSVKEIHLDKYGNMESVDTIEEGSKGNNIKLTIDLAFQDSVDALLKSYFNSELENGGAKYSEGVYAVALNPKTGAVLSMSGIKHDLKTGELTPDSLGTVTNVFVPGSVVKAATISSGWENGVLSGNQTLTDQSIVFQGSAPINSWYTQAYGSFPITAVQALEYSSNTYMVQTALGLMGQTYQPNMFVGTSNLESAMEKLRSTFGEYGLGTATGIDLPDESTGFVPKEYSFANYITNAFGQFDNYTPMQLAQYVATIANNGVRVAPRIVEGIYGNNDKGGLGDLIQQLQPTEMNKVNISDSDMSILHQGFYQVAHGTSGLTTGRAFSNGALVSISGKTGTAESYVADGQQATNTNAVAYAPSDNPQIAVAVVFPHNTNLTNGVGPSIARDIINLYQKYHPMN	18.3	8.1	–
FtsZ-Myc (natural protein) MTFSFDTAAAQGAVIKVIGVGGGGGNAINRMVDEGVTGVEFIAANTDVQALSSTKAETVIQLGPKLTRGLGAGGQPEVGRKAAEESEETLTEAISGADMVFITAGMGGGSGTGAAPVIARIAKDLGALTVGVVTRPFGFEGSKRGQFAVEGINQLREHVDTLLIISNNNLLEIVDKKTPLLEALSEADNVLRQGVQGITDLITNPGLINLDFADVKTVMANKGNALMGIGIGSGEERVVEAARKAIYSPLLETTIDGAEDVIVNVTGGLDLTLIEAEEASQIVNQAAGQGVNIWLGTSIDESMRDEIRVTVVATGVRQDRVEKVVAPQARSATNYRETVKPAHSHGFDRHFDMAETVELPKQNPRRLEPTQASAFGDWDLRRESIVRTTDSVVSPVERFEAPISQDEDELDTPPFFKNR	–	–	15
bPBP2x-HA (enzyme) MKWTKRVIRYATKNRKSPAENRRRVGKSLSLLSVFVFAIFLVNFAVIIGTGTRFGTDLAKEAKKVHQTTRTVPAKRGTIYDRNGVPIAEDATSYNVYAVIDENYKSATGKILYVEKTQFNKVAEVFHKYLDMEESYVREQLSQPNLKQVSFGAKGNGITYANMMSIKKELEAAEVKGIDFTTSPNRSYPNGQFASSFIGLAQLHENEDGSKSLLGTSGMESSLNSILAGTDGIITYEKDRLGNIVPGTEQVSQRTMDGKDVYTTISSPLQSFMETQMDAFQEKVKGKYMTATLVSAKTGEILATTQRPTFDADTKEGITEDFVWRDILYQSNYEPGSTMKVMMLAAAIDNNTFPGGEVFNSSELKIADATIRDWDVNEGLTGGRTMTFSQGFAHSSNVGMTLLEQKMGDATWLDYLNRFKFGVPTRFGLTDEYAGQLPADNIVNIAQSSFGQGISVTQTQMIRAFTAIANDGVMLEPKFISAIYDPNDQTARKSQKEIVGNPVSKDAASLTRTNMVLVGTDPVYGTMYNHSTGKPTVTVPGQNVALKSGTAQIADEKNGGYLVGLTDYIFSAVSMSPAENPDFILYVTVQQPEHYSGIQLGEFANPILERASAMKDSLNLQTTAKALEQVSQQSPYPMPSVKDISPGDLAEELRRNLVQPIVVGTGTKIKNSSAEEGKNLAPNQQVLILSDKAEEVPDMYGWTKETAETLAKWLNIELEFQGSGSTVQKQDVRANTAIKDIKKITLTLGD	–	3.4	–
MreC (natural protein) MNRFKKSKYVIIVFVTVLLVSALLATTYSSTIVTKLGDGISLVDRVVQKPFQWFDSVKSDLAHLTRTYNENESLKKQLYQLEVKSNEVESLKTENEQLRQLLDMKSKLQATKTLAADVIMRSPVSWKQELTLDAGRSKGASENMLAIANGGLIGSVSKVEENSTIVNLLTNTENADKISVKIQHGSTTIYGIIIGYDKENDVLKISQLNSNSDISAGDKVTTGGLGNFNVADIPVGEVVATTHSTDYLTREVTVKLSADTHNVDVIELVGNS	6.2	8.5	–
EzrA-HA (natural protein) MSNGQLIYLMVAIAVILVLAYVVAIFLRKRNEGRLEALEERKEELYNLPVNDEVEAVKNMHLIGQSQVAFREWNQKWVDLSLNSFADIENNLFEAEGYNHSFRFLKASHQIDQIESQITLIEEDIAAIRNALADLEKQESKNSGRVLHALDLFEELQHRVAENSEQYGQALDEIEKQLENIQSEFSQFVTLNSSGDPVEAAVILDNTENHILALSHIVDRVPALVTTLSTELPDQLQDLEAGYRKLIDANYHFVETDIEARFHLLYEAFKKNQENIRQLELDNAEYENGQAQEEINALYDIFTREIAAQKVVENLLATLPTYLQHMKENNTLLGEDIARLNKTYLLPETAASHVRRIQTELESFEAAIVEVTSNQEEPTQAYSVLEENLEDLQTQLKDIEDEQISVSERLTQIEKDDINARQKANVYVNRLHTIKRYMEKRNLPGIPQTFLKLFFTASNNTEDLMVELEQKMINIESVTRVLEIATNDMEALETETYNIVQYATLTEQLLQYSNRYRSFDERIQEAFNEALDIFEKEFDYHASFDKISQALEVAEPGVTNRFVTSYEKTRETIRF	5.4	–	–

Reference: paper PMC5344783 (Molecular microbiology, 2017)
